Among the data in article PMC5430869, “Structure-function analysis of the DNA-binding domain of a transmembrane transcriptional activator” are binding result, Kd and binding signal values, retold here.

Common to all, as to conditions: protein: recombinant; tags: His6-thioredoxin removed by TEV; blunt
The target of data set [1] is T1, CadC1-107 (DBD) (Escherichia coli, UniProt P23890 1-107).
T1 sequence: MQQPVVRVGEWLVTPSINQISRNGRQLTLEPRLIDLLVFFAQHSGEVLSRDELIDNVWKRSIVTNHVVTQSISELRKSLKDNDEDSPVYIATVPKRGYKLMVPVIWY
The data set can be described thus: NMR; EMSA/NMR/ITC: 20 mM BisTris, 150 mM NaCl, pH 6.5, RT (NMR 10% D2O, 298 K; imino spectra 283 K); SPR: 10 mM HEPES pH 7.4, 150 mM NaCl, 3 mM EDTA, 0.05% P20, 25 C. (A gel shift assay detects complexes by their altered migration in electrophoresis.)

In data set [2] the target is T1, CadC1-107 (DBD). Briefly: EMSA; identical to 41-mer; value only in figure; EMSA/NMR/ITC: 20 mM BisTris, 150 mM NaCl, pH 6.5, RT (NMR 10% D2O, 298 K; imino spectra 283 K); SPR: 10 mM HEPES pH 7.4, 150 mM NaCl, 3 mM EDTA, 0.05% P20, 25 C.
In data set [3] the target is T1, CadC1-107 (DBD). The data set can be described thus: NMR; smaller imino CSPs, line broadening; EMSA/NMR/ITC: 20 mM BisTris, 150 mM NaCl, pH 6.5, RT (NMR 10% D2O, 298 K; imino spectra 283 K); SPR: 10 mM HEPES pH 7.4, 150 mM NaCl, 3 mM EDTA, 0.05% P20, 25 C.
Data set [4] addresses T1, CadC1-107 (DBD). Briefly: NMR titration; 1:1 model; EMSA/NMR/ITC: 20 mM BisTris, 150 mM NaCl, pH 6.5, RT (NMR 10% D2O, 298 K; imino spectra 283 K); SPR: 10 mM HEPES pH 7.4, 150 mM NaCl, 3 mM EDTA, 0.05% P20, 25 C.
The target of data set [5] is T2, CadC1-159 WT (Escherichia coli, UniProt P23890 1-159).
T2 sequence: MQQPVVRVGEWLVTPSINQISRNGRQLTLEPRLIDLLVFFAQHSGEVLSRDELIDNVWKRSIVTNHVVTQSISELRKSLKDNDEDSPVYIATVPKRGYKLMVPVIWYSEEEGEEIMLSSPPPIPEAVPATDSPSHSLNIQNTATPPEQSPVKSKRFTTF
The data set can be described thus: SPR; steady state; EMSA/NMR/ITC: 20 mM BisTris, 150 mM NaCl, pH 6.5, RT (NMR 10% D2O, 298 K; imino spectra 283 K); SPR: 10 mM HEPES pH 7.4, 150 mM NaCl, 3 mM EDTA, 0.05% P20, 25 C.

The target of the next data set is T3, CadC1-159 E30R (Escherichia coli, UniProt P23890 1-159, E30R).
T3 sequence: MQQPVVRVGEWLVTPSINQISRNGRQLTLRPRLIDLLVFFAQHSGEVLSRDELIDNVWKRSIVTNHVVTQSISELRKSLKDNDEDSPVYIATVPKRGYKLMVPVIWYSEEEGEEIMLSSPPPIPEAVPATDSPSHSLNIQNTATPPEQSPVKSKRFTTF
Briefly: SPR; almost 30-fold; EMSA/NMR/ITC: 20 mM BisTris, 150 mM NaCl, pH 6.5, RT (NMR 10% D2O, 298 K; imino spectra 283 K); SPR: 10 mM HEPES pH 7.4, 150 mM NaCl, 3 mM EDTA, 0.05% P20, 25 C.

Data set [6] deals with T2, CadC1-159 WT. The data set can be described thus: SPR; steady state; construct called CadC DBD in legend, CadC1-159 in Methods; EMSA/NMR/ITC: 20 mM BisTris, 150 mM NaCl, pH 6.5, RT (NMR 10% D2O, 298 K; imino spectra 283 K); SPR: 10 mM HEPES pH 7.4, 150 mM NaCl, 3 mM EDTA, 0.05% P20, 25 C.

B1: Cad1B 13-mer (dsDNA)
DNA 1: GTTTATCTTTTCA
DNA 2: TGAAAAGATAAAC
Take B1: the binding result in the data set with CadC1-107 (DBD) [1] was “binds”.

B2: Cad1AB 26-mer (dsDNA)
DNA 1: GTAAACATTAAATGTTTATCTTTTCA
DNA 2: TGAAAAGATAAACATTTAATGTTTAC
With B2, the binding result in the data set with CadC1-107 (DBD) [2] is “binds”.

B3: Cad1C 13-mer (dsDNA)
DNA 1: TGATATCAACTTG
DNA 2: CAAGTTGATATCA
As to B3, in the data set with CadC1-107 (DBD) [3], the binding result was “binds”.

B4: Cad1 17-mer (dsDNA)
DNA 1: TAAACATTAAATGTTTA
DNA 2: TAAACATTTAATGTTTA
In general, Kd refers to the concentration at which binding is half-saturated. In the case of B4, in the data set with CadC1-107 (DBD) [4], the Kd worked out at 67 ± 16 µM.

B5: Cad1A 14-mer (dsDNA)
DNA 1: GTAAACATTAAATG
DNA 2: CATTTAATGTTTAC
As for B5, the binding result with CadC1-107 (DBD) [1] is “binds”.

B6: Cad1 41-mer, biotinylated (SPR) (dsDNA)
DNA 1: TTGTAAACATTAAATGTTTATCTTTTCATGATATCAACTTG
DNA 2: CAAGTTGATATCATGAAAAGATAAACATTTAATGTTTACAA
On to B6, for which the Kd with CadC1-159 WT [5] came to 0.38 µM. The binding signal with CadC1-159 E30R is ~30 fold increased affinity vs WT.

B7: Cad1 17-mer, biotinylated (SPR) (dsDNA)
DNA 1: TAAACATTAAATGTTTA
DNA 2: TAAACATTTAATGTTTA
Regarding B7, the Kd with CadC1-159 WT [6] worked out at 23 µM.
